Test results from publication PMC9547791 (Acta Neuropathologica, 2022).

Biological target: T1, STI1 TPR2A domain (residues 217-352) (mouse, UniProt Q60864 217-352)
T1 construct: STI1, mouse, TPR2A domain, residues 217-352; The tag is TEV-cleavable
Settings: both partners purified

T1 sequence (Q60864 217-352): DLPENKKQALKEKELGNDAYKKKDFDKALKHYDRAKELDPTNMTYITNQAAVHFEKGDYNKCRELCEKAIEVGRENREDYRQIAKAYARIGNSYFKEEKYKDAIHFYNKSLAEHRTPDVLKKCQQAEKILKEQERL

B1: Hsp90 pentapeptide (MEEVD), C-terminus of Hsp90 (peptide)
peptide: MEEVD
notes: pentapeptide motif of the C-terminus of Hsp90; also called Hsp90 peptide
binding result: binds
